For assay [1], the target named is T1, human OX40 expressed on cells (human, UniProt P43489 29-277).
T1 construct: also called cell-surface human OX40; Jurkat-NF-κB-huOX40
T1 sequence: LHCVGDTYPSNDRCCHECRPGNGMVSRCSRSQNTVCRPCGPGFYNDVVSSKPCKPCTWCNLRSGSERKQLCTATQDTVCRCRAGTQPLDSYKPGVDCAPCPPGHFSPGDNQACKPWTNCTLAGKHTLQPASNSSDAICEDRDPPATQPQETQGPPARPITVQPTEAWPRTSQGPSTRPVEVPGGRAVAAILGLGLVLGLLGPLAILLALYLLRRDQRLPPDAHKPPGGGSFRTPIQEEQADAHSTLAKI
As to the kind of experiment: flow cytometry on CD3/CD28 bead activated human CD4+ T cells. The method, then: After 24 hours, the beads were removed with a magnet. Cells were counted and resuspended to 1.5×10⁶/mL. An aliquot of the cell suspension (100 μL) was used per stain. Test antibody was titrated in a 4-fold dilution series starting at 1 μg/mL. Cells were stained for 30 minutes and washed twice. A 1:250 dilution of (4 μg/mL) of Goat anti Human Fc specific-PE/well (Jackson ImmunoResearch) was added in 100 μL/well PBS containing 1% BSA. Cells were stained for an additional 30 minutes and washed twice, transferred to tubes and acquired using the BD LSR Fortessa flow cytometer, and analyzed using FACSDiva analysis software version 8.0.1.

In assay [2] the target is T2, cynomolgus OX40 on activated cynomolgus monkey CD4+ T cells (cynomolgus monkey, UniProt P43489 29-277 (human entry)).
T2 chain: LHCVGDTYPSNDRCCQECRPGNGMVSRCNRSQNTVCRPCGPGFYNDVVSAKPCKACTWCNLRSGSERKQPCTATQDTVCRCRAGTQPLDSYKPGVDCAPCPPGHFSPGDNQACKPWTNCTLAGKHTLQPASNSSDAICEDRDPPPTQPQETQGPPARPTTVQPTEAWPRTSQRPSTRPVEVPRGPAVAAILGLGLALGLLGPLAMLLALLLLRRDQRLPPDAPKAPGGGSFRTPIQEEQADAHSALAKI
As to the kind of experiment: flow cytometry on PHA and IL-2 activated cynomolgus monkey CD4+ T cells. The procedure:
Cynomolgus monkey whole blood was purchased from Worldwide Primates. For isolation of PBMCs, whole blood was diluted in a 1:1 ratio with PBS without magnesium and calcium (GE Healthcare). Diluted blood (30 mL) was layered under 13 mL of 95% Ficoll-Paque Plus (GE Healthcare) prepared in PBS without magnesium and calcium (GE Healthcare) in 50-mL conical tubes. The tubes were spun at 1000 g for 25 minutes. The interphase was collected and washed twice in 1×PBS. Cells were resuspended to 2×10⁶ cells/mL in RPMI/10% FBS. Cells were incubated for […] with […] phytohemagglutinin (PHA) (Sigma) and 100 U/mL recombinant human interleukin-2 (IL-2) (Proleukin®, Prometheus) in 6-well plates. After 24 hours, cells were washed, counted and resuspended to 2×10⁶/mL. 100 μL of the cells were used per stain. Test anti-OX40 antibody was titrated in a 4-fold dilution series starting at 1 μg/mL. Cells were stained for 30 minutes and washed twice. A 1:250 dilution (4 μg/mL) of Goat anti-Human IgG Fc specific-PE (Jackson ImmunoResearch) in 100 μL PBS containing 1% BSA was added per well. Cells were stained for an additional 30 minutes and washed twice, transferred to tubes and acquired using the BD LSR Fortessa flow cytometer, and analyzed using FACSDiva analysis software version 8.0.1.
(In flow cytometry, cells or beads pass a laser one at a time.)

Assay [3] deals with T1, human OX40 expressed on cells. Description: competition by flow cytometry on Jurkat-NF-κB-huOX40 cells; competitor: ALEXA FLUOR 647-labeled Hu3738 at 2 µg/mL. The method, then: Analysis was performed by flow cytometry.
The target is the same in assay [4]. Description: cell-based or functional assay.
The target in assay [5] is T3, rhesus OX40 expressed on 293 NF-κB reporter cells (rhesus macaque (Macaca mulatta), UniProt P43489 29-277 (human entry)).
T3 construct: also called cell-surface rhesus monkey OX40
T3 chain: T2 chain
As to the kind of experiment: flow cytometry on NF-κB reporter cells expressing rhesus OX40. The procedure:
Rhesus macaque (Macaca mulatta) OX40 is identical to cynomolgus monkey (Macaca fascicularis) OX40 (SEQ ID NO:2) at the amino acid level. […] For the binding assay, cells were resuspended at 5 million cells per mL. 50 μL (250,000 cells)/well were transferred to each well of a 500 μL polypropylene 96-well plate (Nunc). A 2× stock of test anti-OX40 antibody or isotype control monoclonal antibody was prepared in a separate dilution plate at 666, 333, 111, 37.03, 12.34, 4.11, 0.457, 0.152, 0.0508, 0.0169, 0.00564 nM in culture media. The monoclonal antibodies (50 μL/well) were transferred into respective wells of the assay plate. Cells were incubated with the primary antibodies for 30 minutes at 4° C. and washed twice with 250 μL/well of PBS by centrifuging at 800 rpm for 3 minutes. Bound antibody was detected with Cy5-Donkey anti-human IgG (H+L) (Jackson ImmunoResearch) diluted to 2 μg/mL (50 μL/well) in PBS for 30 minutes at 4° C. Cells were washed once with 250 μL/well of PBS, resuspended in PBS containing 1% Formaldehyde and analyzed on a dual laser FACSCalibur (Becton Dickinson).

The target of assay [6] is T1, human OX40 expressed on cells. As to the kind of experiment: cell-based or functional assay. This is another data set of the same source.

The record followed here is patent US20210017289A1 (AbbVie / Abbott, published 2021).

As a reminder, the EC50 is the concentration giving half of the maximal effect.

Several values for one entry are separate records, joined by “and”; a condition that tells them apart may be missing. Equal entries are not always repeated.

B1: Hu3738 (antibody, V domains shown)
VH: EVQLVESGGGLVQPGGSLRLSCAASGFTFSRYGMSWVRQAPGKGLELVATINSNGGRTYYPDSVKGRFTISRDNAKNSLYLQMNSLRAEDTAVYYCAREGITTAYAMDYWGQGTTVTVSS
VL: DIVMTQSPDSLAVSLGERATINCKASQSVDYDGDSYMHWYQQKPGQPPKLLIYAASILESGVPDRFSGSGSGTDFTLTISSLQAEDVAVYYCQQSNEDPRTFGGGTKVEIKR
notes: Humanized antibody; also called exemplary anti-OX40 antibody Hu3738; Hu3738 VH.1b / Hu3738 VL.1
Molecule B1 gave an EC50 in assay [1] of 0.053 nM. The same molecule had a half-maximal effective concentration (EC50) in assay [2] of 0.024 nM. In addition, in assay [3], the “IC50 (read off the curve)” value is around 1 µg/mL. In assay [4], the “EC50 With Cross-linker (nM), NF-κB signaling” value worked out at 0.02 nM and the “EC50 Without Cross-linker (nM), NF-κB signaling” value is 22 nM. The molecule also yielded an EC50 in assay [5] of 2.1 nM. Also, in assay [6], the “ADCC reporter activity, EC50” value was 0.51 nM and 77 ng/mL; the “IFN-γ production by human CD4+ T cells, EC50” value is 0.16 nM and 24 ng/mL; the “proliferation of human peripheral blood CD4+ T cells, EC50” value was 0.11 nM and 16 ng/mL.
